Results from the supplement of paper PMC7125110.
± gives the standard error. Fewer inactive variants are shown than the library holds.

B1: glmS ribozyme (parent)
chain: AUAAAAGCGCCAGAACUACAGAAAUGUAGUUGACGAGGAGGAGGUUUAUCGAAUUUUCGGCGGAUGCCUCCAAA

Experiments:
Details in all cases: with glucosamine-6-phosphate
[1] = variants of: B1; experiment: self-cleavage kobs at 640 uM GlcN6P; higher = faster cleavage; RNA array
In short: (§1)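 Tiles bearing barcoded ribozyme variants, transcribed in situ by E. coli RNA polymerase on sequenced MiSeq chips, were imaged over ~14 h at 37 °C using a hybridised Cy3 probe. Glucosamine-6-phosphate was supplied at 40 μM to 10 mM in HEPES/KCl/Mg(OAc)2 buffer. kobs came from one- or two-exponential decay fits to normalised per-tile medians, and weighted Michaelis–Menten fits then provided kcat and KM.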

[2] = variants of: B1; experiment: self-cleavage kobs at 2500 uM GlcN6P; higher = faster cleavage; RNA array
In short: as §1

[3] = variants of: B1; experiment: self-cleavage kobs at 10000 uM GlcN6P; higher = faster cleavage; RNA array
In short: as §1

Variant	self-cleavage kobs at 640 uM GlcN6P [1]	self-cleavage kobs at 2500 uM GlcN6P [2]	self-cleavage kobs at 10000 uM GlcN6P [3]
A33U A42U G44C	< 1e-05 s⁻¹	–	–
A6G U57A C68G	7.18e-05 ± 2.3e-05 s⁻¹	–	–
A42U C58A C61G	< 1e-05 s⁻¹	< 1e-05 s⁻¹	–
G44C U47C A53G	< 1e-05 s⁻¹	–	–
A6U C10A A14U C70U	0.000391 ± 8.2e-05 s⁻¹	5.43e-05 ± 2.3e-05 s⁻¹	–
G29A C34U G60U	< 1e-05 s⁻¹	–	–
C11G A42U G59U	< 1e-05 s⁻¹	< 1e-05 s⁻¹	–
G32U G62A C67A	< 1e-05 s⁻¹	–	–
G29U C34U U55A	< 1e-05 s⁻¹	< 1e-05 s⁻¹	–
A36G G40U A52U U65C	< 1e-05 s⁻¹	–	–
A36G A39U G43A U45G G59A	< 1e-05 s⁻¹	–	–
G7A U56G U69A	0.00091 ± 0.00042 s⁻¹	–	–
C11A U55G C61G G62C	< 1e-05 s⁻¹	–	–
G32C A33G U47A U54C A64C C71U	< 1e-05 s⁻¹	< 1e-05 s⁻¹	–
G40U G41A A42U U54G G60U C71U	< 1e-05 s⁻¹	< 1e-05 s⁻¹	< 1e-05 s⁻¹
A6C C11A U47C	< 1e-05 s⁻¹	< 1e-05 s⁻¹	–
A6G G38A C50G	0.00032 ± 7.9e-05 s⁻¹	0.000113 ± 3.5e-05 s⁻¹	–
A14G G40U C61G	< 1e-05 s⁻¹	< 1e-05 s⁻¹	–
C8U G13C A14C	< 1e-05 s⁻¹	< 1e-05 s⁻¹	–
A33C A52G C67U	< 1e-05 s⁻¹	< 1e-05 s⁻¹	–
A12U G32U G41A U56A A64U U65A	< 1e-05 s⁻¹	< 1e-05 s⁻¹	–
U45G U54C C61U	< 1e-05 s⁻¹	< 1e-05 s⁻¹	–
G29A G37A	0.000124 ± 3.6e-05 s⁻¹	0.000156 ± 5.7e-05 s⁻¹	–

Variant	self-cleavage kobs at 640 uM GlcN6P [1]	self-cleavage kobs at 2500 uM GlcN6P [2]	self-cleavage kobs at 10000 uM GlcN6P [3]
C11A G32C G41U A52U	< 1e-05 s⁻¹	–	–
C8G G35A G44C	< 1e-05 s⁻¹	–	< 1e-05 s⁻¹
G35C A36U A39G	< 1e-05 s⁻¹	–	–
G13U U30G G35C	< 1e-05 s⁻¹	< 1e-05 s⁻¹	< 1e-05 s⁻¹
U57A G60A C67G	6.42e-05 ± 2.2e-05 s⁻¹	0.000109 ± 3.2e-05 s⁻¹	–
G32U C34A G44A C68A	< 1e-05 s⁻¹	< 1e-05 s⁻¹	–
C8A G43C C61A	< 1e-05 s⁻¹	–	–
U47G G51U	< 1e-05 s⁻¹	–	–
G13U C61U C70G	< 1e-05 s⁻¹	–	–
C34U U47C	< 1e-05 s⁻¹	< 1e-05 s⁻¹	< 1e-05 s⁻¹
A33C U54G C71U	7.35e-05 ± 2.2e-05 s⁻¹	0.000178 ± 4.9e-05 s⁻¹	–
A39C G51A A64G	< 1e-05 s⁻¹	–	–
C16U G35C G37A	< 1e-05 s⁻¹	–	–
G37U A39C A64G U69G	< 1e-05 s⁻¹	–	–
U30G A42G U45C C70A C71A	< 1e-05 s⁻¹	–	–
A14G U45G C50G C68G	< 1e-05 s⁻¹	–	–
C10A C61G C67G	0.00401 ± 0.0011 s⁻¹	–	–
G13C G37U A39U	< 1e-05 s⁻¹	< 1e-05 s⁻¹	–
A6U G9A C50U	< 1e-05 s⁻¹	–	–
C10G U47C U49C U55G	< 1e-05 s⁻¹	–	–
C34A G44U C50A	< 1e-05 s⁻¹	–	–
A14G A15C G29A U47C C67A C71A	< 1e-05 s⁻¹	–	–
C11G C50U U57A G60A C67U	0.000609 ± 0.00017 s⁻¹	–	–

Variant	self-cleavage kobs at 640 uM GlcN6P [1]	self-cleavage kobs at 2500 uM GlcN6P [2]	self-cleavage kobs at 10000 uM GlcN6P [3]
A12C U30C U57G U65C	< 1e-05 s⁻¹	–	–
A12G G29C A39G A52C C67A	< 1e-05 s⁻¹	–	–
A6U C50A U65A U69C	8.83e-05 ± 3.7e-05 s⁻¹	–	–
G32C A33U C68U C71G	< 1e-05 s⁻¹	< 1e-05 s⁻¹	–
C16A G66U C68A	0.0001 ± 3.2e-05 s⁻¹	–	–
G37C G40U U46G G63U	< 1e-05 s⁻¹	–	< 1e-05 s⁻¹
A12C C67A C68A	7.04e-05 ± 1.6e-05 s⁻¹	4.41e-05 ± 2.1e-05 s⁻¹	–
G41A G63U U65G C70U	< 1e-05 s⁻¹	< 1e-05 s⁻¹	–
A39G C61G A64C	< 1e-05 s⁻¹	< 1e-05 s⁻¹	–
C8U C19A G35A A36U G51U	< 1e-05 s⁻¹	–	–
C10U A36U C70A	0.00107 ± 0.00039 s⁻¹	–	–
A12C A33U A52G U54G	< 1e-05 s⁻¹	–	–
A12U G32C C50G C70G	0.000371 ± 0.00015 s⁻¹	0.000257 ± 8.3e-05 s⁻¹	–
A12U G13U U46G	< 1e-05 s⁻¹	–	–
U31G G44A C68U	< 1e-05 s⁻¹	–	–
G9C C50U U55G	< 1e-05 s⁻¹	< 1e-05 s⁻¹	–
G9U U47G	< 1e-05 s⁻¹	–	< 1e-05 s⁻¹
U30G A53G C67U	0.000643 ± 0.00013 s⁻¹	0.00132 ± 0.00032 s⁻¹	–
A6G A36C G38C	< 1e-05 s⁻¹	–	< 1e-05 s⁻¹
U54A A64G C68G	5.8e-05 ± 2.1e-05 s⁻¹	0.000109 ± 3.5e-05 s⁻¹	–
G7U G40U C50G	< 1e-05 s⁻¹	< 1e-05 s⁻¹	–
C8A U49G C68G	0.000875 ± 0.00033 s⁻¹	–	–
G38C U55A A64C	< 1e-05 s⁻¹	–	–
